Measured values as given in EP4782541A1 (Nanjing Probio Biotech Co., Ltd., dated 2026).

Key:
[1] = target: T1, human CD3 (on Jurkat cells) (human, UniProt P07766 23-207; P09693 23-182; P04234 22-171); assay: flow cytometry on Jurkat cells expressing human CD3
T1 construct: whole, on cells

[2] = target: T2, human ROR1 (on CHO-K1/ROR1 cells and ROR1 tumour cell lines) (human, UniProt Q01973 30-937); assay: flow cytometry on CHO-K1/ROR1 cells overexpressing human ROR1
T2 construct: whole, on cells; also called receptor tyrosine kinase-like orphan receptor 1
T2 sequence (Q01973 30-937): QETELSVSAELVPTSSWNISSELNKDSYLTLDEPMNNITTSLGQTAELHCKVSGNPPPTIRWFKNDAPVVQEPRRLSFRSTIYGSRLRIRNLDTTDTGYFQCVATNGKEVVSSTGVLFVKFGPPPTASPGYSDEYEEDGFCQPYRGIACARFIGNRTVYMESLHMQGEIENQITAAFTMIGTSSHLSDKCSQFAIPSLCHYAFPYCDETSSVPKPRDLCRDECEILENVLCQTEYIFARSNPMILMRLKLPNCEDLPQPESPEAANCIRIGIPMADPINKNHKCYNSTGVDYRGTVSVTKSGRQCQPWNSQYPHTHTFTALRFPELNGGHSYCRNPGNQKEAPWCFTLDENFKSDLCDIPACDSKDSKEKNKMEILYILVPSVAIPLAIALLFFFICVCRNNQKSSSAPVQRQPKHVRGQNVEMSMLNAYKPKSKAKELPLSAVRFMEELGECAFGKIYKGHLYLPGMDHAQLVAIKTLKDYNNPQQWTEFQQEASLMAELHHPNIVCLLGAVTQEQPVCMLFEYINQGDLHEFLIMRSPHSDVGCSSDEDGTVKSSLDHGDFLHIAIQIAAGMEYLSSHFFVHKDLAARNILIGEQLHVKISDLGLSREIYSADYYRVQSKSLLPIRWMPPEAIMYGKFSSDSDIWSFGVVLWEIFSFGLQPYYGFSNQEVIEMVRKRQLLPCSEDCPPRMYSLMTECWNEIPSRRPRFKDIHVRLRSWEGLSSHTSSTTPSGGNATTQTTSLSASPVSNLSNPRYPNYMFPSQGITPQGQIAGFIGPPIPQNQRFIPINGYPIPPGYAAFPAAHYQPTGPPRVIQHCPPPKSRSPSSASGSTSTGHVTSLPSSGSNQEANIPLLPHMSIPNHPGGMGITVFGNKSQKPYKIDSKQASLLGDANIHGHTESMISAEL

T1 sequence (P07766 23-207, chain 1 of 3): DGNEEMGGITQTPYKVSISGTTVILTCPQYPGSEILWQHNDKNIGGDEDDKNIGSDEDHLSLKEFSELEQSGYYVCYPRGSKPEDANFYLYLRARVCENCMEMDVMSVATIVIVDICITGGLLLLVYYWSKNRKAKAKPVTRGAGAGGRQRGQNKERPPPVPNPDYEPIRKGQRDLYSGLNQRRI
T1 sequence (P09693 23-182, chain 2 of 3): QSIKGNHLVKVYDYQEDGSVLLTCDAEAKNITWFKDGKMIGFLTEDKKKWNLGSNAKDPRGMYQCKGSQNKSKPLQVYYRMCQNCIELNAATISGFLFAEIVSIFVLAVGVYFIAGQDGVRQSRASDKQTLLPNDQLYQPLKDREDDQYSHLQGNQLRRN
T1 sequence (P04234 22-171, chain 3 of 3): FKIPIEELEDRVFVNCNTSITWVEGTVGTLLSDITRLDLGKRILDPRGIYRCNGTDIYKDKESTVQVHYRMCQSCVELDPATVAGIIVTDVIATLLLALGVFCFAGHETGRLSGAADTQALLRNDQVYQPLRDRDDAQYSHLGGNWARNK

| Binder | EC50 [1] [nM] | EC50 [2] [nM] |
| --- | --- | --- |
| BsAb-1 (bispecific antibody, human IgG1, lambda, human IgG1 Fc with L234S/L235T/G236R; also called BsAb-01) EVQLVESGGGLVQPGGSLRLSCAASGFISRFYAMGWYRQAPGKQRELVARISSMGWTYYADSVKGRFTISIDNSKNTLYLQMNSLRAEDTAVYYCNARNLWGQGTLVTVSSDKTHTCPPCPAPESTRGPSVFLFPPKPKDTLMISRTPEVTCVVVDVSHEDPEVKFNWYVDGVEVHNAKTKPREEQYNSTYRVVSVLTVLHQDWLNGKEYKCKVSNKALPAPIEKTISKAKGQPREPQVCTLPPSRDELTKNQVSLSCAVKGFYPSDIAVEWESNGQPENNYKTTPPVLDSDGSFFLVSKLTVDKSRWQQGNVFSCSVMHEALHNHYTQKSLSLSPGK heavy: EVQLVESGGGLVQPGRSLRLSCAASGFTFNTYAMNWVRQAPGKGLEWVARIRSKYNNYATYYADSVKDRFTISRDDSKSIAYLQMNSLKTEDTAVYYCVRHGNFGNSYVSWFAYWGQGTLVTVSSASTKGPSVFPLAPSSKSTSGGTAALGCLVKDYFPEPVTVSWNSGALTSGVHTFPAVLQSSGLYSLSSVVTVPSSSLGTQTYICNVNHKPSNTKVDKKVEPKSCDKTHTCPPCPAPESTRGPSVFLFPPKPKDTLMISRTPEVTCVVVDVSHEDPEVKFNWYVDGVEVHNAKTKPREEQYNSTYRVVSVLTVLHQDWLNGKEYKCKVSNKALPAPIEKTISKAKGQPREPQVYTLPPCRDELTKNQVSLWCLVKGFYPSDIAVEWESNGQPENNYKTTPPVLDSDGSFFLYSKLTVDKSRWQQGNVFSCSVMHEALHNHYTQKSLSLSPGK light: QTVVTQEPSLTVSPGGTVTLTCRSSTGAVTTSNYANWVQQKPGQAPRGLIGGTNKRAPGVPARFSGSLLGGKAALTLSGVQPEDEAEYFCALWYSNLWVFGGGTKLTVLGQPKAAPSVTLFPPSSEELQANKATLVCLISDFYPGAVTVAWKADSSPVKAGVETTTPSKQSNNKYAASSYLSLTPEQWKSHRSYSCQVTHEGSTVEKTVAPTECS | 0.384 | 0.287 |
| BsAb-5 (bispecific antibody, human IgG1, lambda, also called BsAb-05) EVQLVESGGGLVQPGGSLRLSCAASGFISRFYAMGWYRQAPGKQRELVARISSMGWTYYADSVKGRFTISIDNSKNTLYLQMNSLRAEDTAVYYCNARNLWGQGTLVTVSSGGGGSGGGGSGGGGSEVQLVESGGGLVQPGGSLRLSCAASGFISRFYAMGWYRQAPGKQRELVARISSMGWTYYADSVKGRFTISIDNSKNTLYLQMNSLRAEDTAVYYCNARNLWGQGTLVTVSSDKTHTCPPCPAPESTRGPSVFLFPPKPKDTLMISRTPEVTCVVVDVSHEDPEVKFNWYVDGVEVHNAKTKPREEQYNSTYRVVSVLTVLHQDWLNGKEYKCKVSNKALPAPIEKTISKAKGQPREPQVCTLPPSRDELTKNQVSLSCAVKGFYPSDIAVEWESNGQPENNYKTTPPVLDSDGSFFLVSKLTVDKSRWQQGNVFSCSVMHEALHNHYTQKSLSLSPGK heavy: EVQLVESGGGLVQPGRSLRLSCAASGFTFNTYAMNWVRQAPGKGLEWVARIRSKYNNYATYYADSVKDRFTISRDDSKSIAYLQMNSLKTEDTAVYYCVRHGNFGNSYVSWFAYWGQGTLVTVSSASTKGPSVFPLAPSSKSTSGGTAALGCLVKDYFPEPVTVSWNSGALTSGVHTFPAVLQSSGLYSLSSVVTVPSSSLGTQTYICNVNHKPSNTKVDKKVEPKSCDKTHTCPPCPAPESTRGPSVFLFPPKPKDTLMISRTPEVTCVVVDVSHEDPEVKFNWYVDGVEVHNAKTKPREEQYNSTYRVVSVLTVLHQDWLNGKEYKCKVSNKALPAPIEKTISKAKGQPREPQVYTLPPCRDELTKNQVSLWCLVKGFYPSDIAVEWESNGQPENNYKTTPPVLDSDGSFFLYSKLTVDKSRWQQGNVFSCSVMHEALHNHYTQKSLSLSPGK light: QTVVTQEPSLTVSPGGTVTLTCRSSTGAVTTSNYANWVQQKPGQAPRGLIGGTNKRAPGVPARFSGSLLGGKAALTLSGVQPEDEAEYFCALWYSNLWVFGGGTKLTVLGQPKAAPSVTLFPPSSEELQANKATLVCLISDFYPGAVTVAWKADSSPVKAGVETTTPSKQSNNKYAASSYLSLTPEQWKSHRSYSCQVTHEGSTVEKTVAPTECS | 0.913 | 0.109 |
| BsAb-8 (bispecific antibody, human IgG1, lambda, also called BsAb-08) EVQLVESGGGLVQPGGSLRLSCAASGRSFSSFQMGWFRQAPGKEREFVAASGWSGGPTYYWDSVIGRFTISTDNSKNTLYLQMNSLRAEDTAVYYCYEDRVLSGRPVRYWGQGTLVTVSSGGGGSGGGGSGGGGSEVQLVESGGGLVQPGGSLRLSCAASGRSFSSFQMGWFRQAPGKEREFVAASGWSGGPTYYWDSVIGRFTISTDNSKNTLYLQMNSLRAEDTAVYYCYEDRVLSGRPVRYWGQGTLVTVSSDKTHTCPPCPAPESTRGPSVFLFPPKPKDTLMISRTPEVTCVVVDVSHEDPEVKFNWYVDGVEVHNAKTKPREEQYNSTYRVVSVLTVLHQDWLNGKEYKCKVSNKALPAPIEKTISKAKGQPREPQVCTLPPSRDELTKNQVSLSCAVKGFYPSDIAVEWESNGQPENNYKTTPPVLDSDGSFFLVSKLTVDKSRWQQGNVFSCSVMHEALHNHYTQKSLSLSPGK heavy: EVQLVESGGGLVQPGRSLRLSCAASGFTFNTYAMNWVRQAPGKGLEWVARIRSKYNNYATYYADSVKDRFTISRDDSKSIAYLQMNSLKTEDTAVYYCVRHGNFGNSYVSWFAYWGQGTLVTVSSASTKGPSVFPLAPSSKSTSGGTAALGCLVKDYFPEPVTVSWNSGALTSGVHTFPAVLQSSGLYSLSSVVTVPSSSLGTQTYICNVNHKPSNTKVDKKVEPKSCDKTHTCPPCPAPESTRGPSVFLFPPKPKDTLMISRTPEVTCVVVDVSHEDPEVKFNWYVDGVEVHNAKTKPREEQYNSTYRVVSVLTVLHQDWLNGKEYKCKVSNKALPAPIEKTISKAKGQPREPQVYTLPPCRDELTKNQVSLWCLVKGFYPSDIAVEWESNGQPENNYKTTPPVLDSDGSFFLYSKLTVDKSRWQQGNVFSCSVMHEALHNHYTQKSLSLSPGK light: QTVVTQEPSLTVSPGGTVTLTCRSSTGAVTTSNYANWVQQKPGQAPRGLIGGTNKRAPGVPARFSGSLLGGKAALTLSGVQPEDEAEYFCALWYSNLWVFGGGTKLTVLGQPKAAPSVTLFPPSSEELQANKATLVCLISDFYPGAVTVAWKADSSPVKAGVETTTPSKQSNNKYAASSYLSLTPEQWKSHRSYSCQVTHEGSTVEKTVAPTECS | 0.838 | 0.28 |
| BsAb-4 (bispecific antibody, human IgG1, lambda, also called BsAb-04) EVQLVESGGGLVQPGGSLRLSCAASGRSFSSFQMGWFRQAPGKEREFVAASGWSGGPTYYWDSVIGRFTISTDNSKNTLYLQMNSLRAEDTAVYYCYEDRVLSGRPVRYWGQGTLVTVSSDKTHTCPPCPAPESTRGPSVFLFPPKPKDTLMISRTPEVTCVVVDVSHEDPEVKFNWYVDGVEVHNAKTKPREEQYNSTYRVVSVLTVLHQDWLNGKEYKCKVSNKALPAPIEKTISKAKGQPREPQVCTLPPSRDELTKNQVSLSCAVKGFYPSDIAVEWESNGQPENNYKTTPPVLDSDGSFFLVSKLTVDKSRWQQGNVFSCSVMHEALHNHYTQKSLSLSPGK heavy: EVQLVESGGGLVQPGRSLRLSCAASGFTFNTYAMNWVRQAPGKGLEWVARIRSKYNNYATYYADSVKDRFTISRDDSKSIAYLQMNSLKTEDTAVYYCVRHGNFGNSYVSWFAYWGQGTLVTVSSASTKGPSVFPLAPSSKSTSGGTAALGCLVKDYFPEPVTVSWNSGALTSGVHTFPAVLQSSGLYSLSSVVTVPSSSLGTQTYICNVNHKPSNTKVDKKVEPKSCDKTHTCPPCPAPESTRGPSVFLFPPKPKDTLMISRTPEVTCVVVDVSHEDPEVKFNWYVDGVEVHNAKTKPREEQYNSTYRVVSVLTVLHQDWLNGKEYKCKVSNKALPAPIEKTISKAKGQPREPQVYTLPPCRDELTKNQVSLWCLVKGFYPSDIAVEWESNGQPENNYKTTPPVLDSDGSFFLYSKLTVDKSRWQQGNVFSCSVMHEALHNHYTQKSLSLSPGK light: QTVVTQEPSLTVSPGGTVTLTCRSSTGAVTTSNYANWVQQKPGQAPRGLIGGTNKRAPGVPARFSGSLLGGKAALTLSGVQPEDEAEYFCALWYSNLWVFGGGTKLTVLGQPKAAPSVTLFPPSSEELQANKATLVCLISDFYPGAVTVAWKADSSPVKAGVETTTPSKQSNNKYAASSYLSLTPEQWKSHRSYSCQVTHEGSTVEKTVAPTECS | 0.629 | 0.373 |
